Data on four molecules can be found in US20140274782A1, “AFFINITY REAGENTS AND METHODS FOR DETECTION, PURIFICATION, AND PROTEOMIC ANALYSIS OF METHYLATED PROTEINS” (The Board of Trustees of the Leland Stanford Junior …, priority 2013, published 2014).

For one experiment, the system named is 3×MBT domain of L3MBTL1. The experiment is described as follows: Triple SILAC pull-down, 3xMBT/3xMBTD355N ratio (cytoplasmic, nuclear and chromatin fractions of 293T cells).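 As to all read-outs here: proteins quantified with MaxQuant, requiring at least two unique peptides and quantification in both label directions, normalized to the mean of proteins from a digested loading control.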 It counts as binding, human. To be noted: SILAC ratio, pull-down 3xMBT vs 3xMBTD355N; for 3xMBT/D355N UNC Heavy: experiment with UNC0638 in heavy SILAC media; for 3xMBT/D355N UNC Light: experiment with UNC0638 in light SILAC media.

Another experiment has as its target T1, G9a and GLP (Homo sapiens, UniProt Q96KQ7+Q9H9B1).
T1 sequence (Q96KQ7 2-1210 limits assumed): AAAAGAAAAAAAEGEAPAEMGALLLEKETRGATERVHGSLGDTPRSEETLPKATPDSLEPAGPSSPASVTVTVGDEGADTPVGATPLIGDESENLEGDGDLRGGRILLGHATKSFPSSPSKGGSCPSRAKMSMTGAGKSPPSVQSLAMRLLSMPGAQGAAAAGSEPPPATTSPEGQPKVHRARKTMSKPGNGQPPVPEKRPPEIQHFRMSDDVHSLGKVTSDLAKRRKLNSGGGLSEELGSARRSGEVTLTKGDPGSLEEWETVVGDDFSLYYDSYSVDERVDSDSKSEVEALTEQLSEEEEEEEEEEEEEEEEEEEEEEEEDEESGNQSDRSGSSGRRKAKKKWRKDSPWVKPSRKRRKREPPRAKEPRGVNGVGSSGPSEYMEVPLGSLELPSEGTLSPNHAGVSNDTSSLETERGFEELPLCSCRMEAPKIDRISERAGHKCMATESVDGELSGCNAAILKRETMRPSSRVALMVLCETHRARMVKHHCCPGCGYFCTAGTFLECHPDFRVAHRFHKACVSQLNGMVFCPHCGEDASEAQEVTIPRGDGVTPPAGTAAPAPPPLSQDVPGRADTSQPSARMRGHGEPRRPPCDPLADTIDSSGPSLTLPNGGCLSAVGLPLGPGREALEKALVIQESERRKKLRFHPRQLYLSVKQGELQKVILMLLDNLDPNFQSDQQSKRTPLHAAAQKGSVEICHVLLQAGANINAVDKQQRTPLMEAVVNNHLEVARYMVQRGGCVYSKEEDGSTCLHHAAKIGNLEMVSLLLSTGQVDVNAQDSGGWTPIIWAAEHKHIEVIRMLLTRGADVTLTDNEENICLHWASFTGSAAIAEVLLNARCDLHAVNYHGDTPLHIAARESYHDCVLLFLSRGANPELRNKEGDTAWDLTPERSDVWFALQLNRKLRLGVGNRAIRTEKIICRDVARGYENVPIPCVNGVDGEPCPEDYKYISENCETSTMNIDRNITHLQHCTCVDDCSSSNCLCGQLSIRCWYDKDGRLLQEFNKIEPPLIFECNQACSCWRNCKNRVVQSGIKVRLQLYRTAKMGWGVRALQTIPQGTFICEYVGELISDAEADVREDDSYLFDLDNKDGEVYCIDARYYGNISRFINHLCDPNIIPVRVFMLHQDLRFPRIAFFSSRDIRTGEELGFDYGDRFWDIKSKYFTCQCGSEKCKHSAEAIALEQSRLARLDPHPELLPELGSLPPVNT
T1 sequence (Q9H9B1 2-1298 limits assumed): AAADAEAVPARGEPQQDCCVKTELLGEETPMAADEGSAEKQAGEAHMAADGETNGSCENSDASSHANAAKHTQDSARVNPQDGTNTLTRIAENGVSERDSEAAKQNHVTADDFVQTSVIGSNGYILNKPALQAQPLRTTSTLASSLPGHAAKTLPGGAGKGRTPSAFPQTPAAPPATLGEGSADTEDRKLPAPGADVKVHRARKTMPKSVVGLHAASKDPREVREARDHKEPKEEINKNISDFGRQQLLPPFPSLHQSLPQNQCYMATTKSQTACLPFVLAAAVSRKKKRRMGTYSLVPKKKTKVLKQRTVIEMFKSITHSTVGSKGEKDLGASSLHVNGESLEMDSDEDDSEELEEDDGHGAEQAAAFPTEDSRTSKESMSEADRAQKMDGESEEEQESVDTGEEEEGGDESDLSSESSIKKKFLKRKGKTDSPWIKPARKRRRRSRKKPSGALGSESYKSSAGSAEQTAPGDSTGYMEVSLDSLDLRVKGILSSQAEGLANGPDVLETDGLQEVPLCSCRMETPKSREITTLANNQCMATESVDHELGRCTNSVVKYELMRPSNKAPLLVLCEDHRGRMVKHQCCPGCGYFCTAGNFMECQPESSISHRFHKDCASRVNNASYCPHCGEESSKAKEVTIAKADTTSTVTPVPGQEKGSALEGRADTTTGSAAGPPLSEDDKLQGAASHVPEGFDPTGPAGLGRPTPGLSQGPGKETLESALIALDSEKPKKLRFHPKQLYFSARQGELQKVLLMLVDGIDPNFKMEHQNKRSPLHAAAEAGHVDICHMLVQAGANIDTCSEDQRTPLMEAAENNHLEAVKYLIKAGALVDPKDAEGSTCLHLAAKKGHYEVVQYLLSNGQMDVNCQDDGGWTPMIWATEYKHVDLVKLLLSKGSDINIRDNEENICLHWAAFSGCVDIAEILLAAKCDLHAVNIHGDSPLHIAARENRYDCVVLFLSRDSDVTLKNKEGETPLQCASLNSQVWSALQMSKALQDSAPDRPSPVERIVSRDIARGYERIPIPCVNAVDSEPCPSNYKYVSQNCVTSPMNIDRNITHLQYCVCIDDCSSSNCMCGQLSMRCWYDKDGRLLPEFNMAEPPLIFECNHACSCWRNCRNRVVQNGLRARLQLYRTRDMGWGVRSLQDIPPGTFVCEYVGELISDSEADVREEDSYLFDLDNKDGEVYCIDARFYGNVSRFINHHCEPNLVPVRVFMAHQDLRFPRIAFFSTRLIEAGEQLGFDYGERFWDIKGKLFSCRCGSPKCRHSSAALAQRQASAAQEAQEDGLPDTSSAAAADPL
The experiment is described as follows: Triple SILAC pull-down after UNC0638 treatment of 293T cells, DMSO/UNC0638 ratio of protein captured by 3×MBT.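 As to all read-outs here: mass spectrometry (Q-Exactive) SILAC quantitation, DMSO/UNC0638 ratio computed after subtracting 3×MBTD355N mutant pull-down background, only proteins with at least twofold 3×MBT over mutant signal considered.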 The settings on record: for Relative to UNC0638 UNC Heavy / Relative to UNC0638 UNC Light: SILAC ratio DMSO/UNC0638 of protein pulled down with 3xMBT; for Relative to UNC0638 UNC Heavy: UNC0638 in heavy SILAC media; for Relative to UNC0638 UNC Light: UNC0638 in light SILAC media; for Relative to UNC0638 Average: average of UNC Light and UNC Heavy experiments. It counts as cell-based. Set-up: cells were treated for 24 hours with UNC0638 at 2.5 μM or DMSO vehicle control; endogenous in cells; host or cells: HEK 293T.

B1: ILKAP (protein, UniProt Q9H0C8 1-392, looked up)
Integrin-linked …: MDLFGDLPEPERSPRPAAGKEAQKGPLLFDDLPPASSTDSGSGGPLLFDDLPPASSGDSGSLATSISQMVKTEGKGAKRKTSEEEKNGSEELVEKKVCKASSVIFGLKGYVAERKGEREEMQDAHVILNDITEECRPPSSLITRVSYFAVFDGHGGIRASKFAAQNLHQNLIRKFPKGDVISVEKTVKRCLLDTFKHTDEEFLKQASSQKPAWKDGSTATCVLAVDNILYIANLGDSRAILCRYNEESQKHAALSLSKEHNPTQYEERMRIQKAGGNVRDGRVLGVLEVSRSIGDGQYKRCGVTSVPDIRRCQLTPNDRFILLACDGLFKVFTPEEAVNFILSCLEDEKIQTREGKSAADARYEAACNRLANKAVQRGSADNVTVMVVRIGH
As to B1, in the experiment on 3×MBT domain of L3MBTL1, the “3xMBT/D355N UNC Heavy” value is 3.22 log base 2 and the “3xMBT/D355N UNC Light” value was found to be 2.54 log base 2. Besides, in the experiment with G9a and GLP, the “Relative to UNC0638 UNC Heavy” value is reported as −0.07 log base 2, the “Relative to UNC0638 UNC Light” value is listed as 0.33 log base 2 and the “Relative to UNC0638 Average” value was determined as 0.13 log base 2.

B2: PUM1 (protein, UniProt Q14671 2-1186, looked up)
Pumilio homolog 1: SVACVLKRKAVLWQDSFSPHLKHHPQEPANPNMPVVLTSGTGSQAQPQPAANQALAAGTHSSPVPGSIGVAGRSQDDAMVDYFFQRQHGEQLGGGGSGGGGYNNSKHRWPTGDNIHAEHQVRSMDELNHDFQALALEGRAMGEQLLPGKKFWETDESSKDGPKGIFLGDQWRDSAWGTSDHSVSQPIMVQRRPGQSFHVNSEVNSVLSPRSESGGLGVSMVEYVLSSSPGDSCLRKGGFGPRDADSDENDKGEKKNKGTFDGDKLGDLKEEGDVMDKTNGLPVQNGIDADVKDFSRTPGNCQNSANEVDLLGPNQNGSEGLAQLTSTNGAKPVEDFSNMESQSVPLDPMEHVGMEPLQFDYSGTQVPVDSAAATVGLFDYNSQQQLFQRPNALAVQQLTAAQQQQYALAAAHQPHIGLAPAAFVPNPYIISAAPPGTDPYTAGLAAAATLGPAVVPHQYYGVTPWGVYPASLFQQQAAAAAAATNSANQQTTPQAQQGQQQVLRGGASQRPLTPNQNQQGQQTDPLVAAAAVNSALAFGQGLAAGMPGYPVLAPAAYYDQTGALVVNAGARNGLGAPVRLVAPAPVIISSSAAQAAVAAAAASANGAAGGLAGTTNGPFRPLGTQQPQPQPQQQPNNNLASSSFYGNNSLNSNSQSSSLFSQGSAQPANTSLGFGSSSSLGATLGSALGGFGTAVANSNTGSGSRRDSLTGSSDLYKRTSSSLTPIGHSFYNGLSFSSSPGPVGMPLPSQGPGHSQTPPPSLSSHGSSSSLNLGGLTNGSGRYISAAPGAEAKYRSASSASSLFSPSSTLFSSSRLRYGMSDVMPSGRSRLLEDFRNNRYPNLQLREIAGHIMEFSQDQHGSRFIQLKLERATPAERQLVFNEILQAAYQLMVDVFGNYVIQKFFEFGSLEQKLALAERIRGHVLSLALQMYGCRVIQKALEFIPSDQQNEMVRELDGHVLKCVKDQNGNHVVQKCIECVQPQSLQFIIDAFKGQVFALSTHPYGCRVIQRILEHCLPDQTLPILEELHQHTEQLVQDQYGNYVIQHVLEHGRPEDKSKIVAEIRGNVLVLSQHKFASNVVEKCVTHASRTERAVLIDEVCTMNDGPHSALYTMMKDQYANYVVQKMIDVAEPGQRKIVMHKIRPHIATLRKYTYGKHILAKLEKYYMKNGVDLGPICGPPNGII
For the molecule B2, in the experiment on 3×MBT domain of L3MBTL1, the “3xMBT/D355N UNC Heavy” value is recorded as 2.08 log base 2 and the “3xMBT/D355N UNC Light” value amounted to 1.66 log base 2. Further, in the experiment with G9a and GLP, the “Relative to UNC0638 UNC Heavy” value was 0.35 log base 2, the “Relative to UNC0638 UNC Light” value is reported as −0.08 log base 2 and the “Relative to UNC0638 Average” value amounted to 0.13 log base 2.

B3: MINA (protein, UniProt Q8IUF8 1-465, looked up)
Ribosomal oxygenase 2: MPKKAKPTGSGKEEGPAPCKQMKLEAAGGPSALNFDSPSSLFESLISPIKTETFFKEFWEQKPLLIQRDDPALATYYGSLFKLTDLKSLCSRGMYYGRDVNVCRCVNGKKKVLNKDGKAHFLQLRKDFDQKRATIQFHQPQRFKDELWRIQEKLECYFGSLVGSNVYITPAGSQGLPPHYDDVEVFILQLEGEKHWRLYHPTVPLAREYSVEAEERIGRPVHEFMLKPGDLLYFPRGTIHQADTPAGLAHSTHVTISTYQNNSWGDFLLDTISGLVFDTAKEDVELRTGIPRQLLLQVESTTVATRRLSGFLRTLADRLEGTKELLSSDMKKDFIMHRLPPYSAGDGAELSTPGGKLPRLDSVVRLQFKDHIVLTVLPDQDQSDEAQEKMVYIYHSLKNSRETHMMGNEEETEFHGLRFPLSHLDALKQIWNSPAISVKDLKLTTDEEKESLVLSLWTECLIQVV
Turning to B3, in the experiment with 3×MBT domain of L3MBTL1, the “3xMBT/D355N UNC Heavy” value came out at 2.27 log base 2 and the “3xMBT/D355N UNC Light” value is on record as 2.12 log base 2. In the experiment with G9a and GLP, the “Relative to UNC0638 UNC Heavy” value came out at 0.34 log base 2, the “Relative to UNC0638 UNC Light” value was −0.08 log base 2 and the “Relative to UNC0638 Average” value amounted to 0.13 log base 2.

B4: FAM98B (protein, UniProt Q52LJ0 1-433, looked up)
Protein FAM98B: MRGPEPGPQPTMEGDVLDTLEALGYKGPLLEEQALTKAAEGGLSSPEFSELCIWLGSQIKSLCNLEESITSAGRDDLESFQLEISGFLKEMACPYSVLISGDIKDRLKKKEDCLKLLLFLSTELQASQILQNKKHKNSQLDKNSEVYQEVQAMFDTLGIPKSTTSDIPHMLNQVESKVKDILSKVQKNHVGKPLLKMDLNSEQAEQLERINDALSCEYECRRRMLMKRLDVTVQSFGWSDRAKVKTDDIARIYQPKRYALSPKTTITMAHLLAAREDLSKIIRTSSGTSREKTACAINKVLMGRVPDRGGRPNEIEPPPPEMPPWQKRQEGGGGRGGWGGGGGGGGRGGGGGGGGRGGWGGGGGGWGGGGGGGGGWGGGGGGGRGGFQGRGDYGGRGGYGGRGGYGGRGYGDPYGGGGGGGGGGGGGGGYRRY
Consider B4, for which, in the experiment on 3×MBT domain of L3MBTL1, the “3xMBT/D355N UNC Heavy” value was 3.88 log base 2 and the “3xMBT/D355N UNC Light” value is reported as 3.18 log base 2. Besides, in the experiment with G9a and GLP, the “Relative to UNC0638 UNC Heavy” value is 0.11 log base 2, the “Relative to UNC0638 UNC Light” value is 0.14 log base 2 and the “Relative to UNC0638 Average” value is 0.13 log base 2.
